Bridges are numbered along the chain shown (N, C = ends). Where no end group is shown, it is not given here.

The assay has as its target recombinant human angiopoietin-2 (human) (UniProt O15123). The experiment in a line: direct ELISA, rhAng2 coated on microplate wells, detection by HRP-anti-His tag antibody, OD450.
Sequence of UniProt O15123 (O15123 19-496 limits assumed): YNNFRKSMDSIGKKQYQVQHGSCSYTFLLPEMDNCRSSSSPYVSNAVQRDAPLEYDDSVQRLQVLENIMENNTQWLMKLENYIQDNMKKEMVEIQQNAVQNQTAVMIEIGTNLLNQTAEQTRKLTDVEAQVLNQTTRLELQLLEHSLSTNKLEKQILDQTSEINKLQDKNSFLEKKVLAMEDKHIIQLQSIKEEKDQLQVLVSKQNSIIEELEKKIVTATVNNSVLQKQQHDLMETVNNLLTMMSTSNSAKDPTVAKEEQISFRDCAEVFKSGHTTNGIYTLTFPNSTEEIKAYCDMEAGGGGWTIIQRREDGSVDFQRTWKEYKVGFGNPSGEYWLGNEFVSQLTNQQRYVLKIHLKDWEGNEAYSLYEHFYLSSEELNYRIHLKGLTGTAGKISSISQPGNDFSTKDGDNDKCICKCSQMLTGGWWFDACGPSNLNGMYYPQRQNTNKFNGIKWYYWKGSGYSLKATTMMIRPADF

B1: Construct 12: ELP-MRD fusion protein with a constrained rhAng2-targeting peptide (ANGd) sandwiched between ELP repeat modules (designed binder, not shown: small tags and cut ends)
chain: LWDDCYSFPNPPHCYNSP
modifications: disulfide 5-14 (inferred); not fully specified (N-terminus, C-terminus); also: peptide sandwiched between ELP repeat modules, ELP composition not given here
The term EC50 (read off the curve) denotes the concentration at which the effect is half-maximal. As for B1, the 50% effective concentration (EC50 (read off the curve)) was 8 nM.

The record behind these values is patent US20140088019A1.
